From patent US20020028453A1 (CURIS, published 2002)

Target: T1, α-2 macroglobulin (Homo sapiens (Human), UniProt P01023 24-1474, Native alpha-2-macroglobulin is a glycosylated homotetramer (disulfide-linked dimers) with an internal thioester; one subunit is given.)
T1 construct: also called alpha-2 macroglobulin
T1 sequence: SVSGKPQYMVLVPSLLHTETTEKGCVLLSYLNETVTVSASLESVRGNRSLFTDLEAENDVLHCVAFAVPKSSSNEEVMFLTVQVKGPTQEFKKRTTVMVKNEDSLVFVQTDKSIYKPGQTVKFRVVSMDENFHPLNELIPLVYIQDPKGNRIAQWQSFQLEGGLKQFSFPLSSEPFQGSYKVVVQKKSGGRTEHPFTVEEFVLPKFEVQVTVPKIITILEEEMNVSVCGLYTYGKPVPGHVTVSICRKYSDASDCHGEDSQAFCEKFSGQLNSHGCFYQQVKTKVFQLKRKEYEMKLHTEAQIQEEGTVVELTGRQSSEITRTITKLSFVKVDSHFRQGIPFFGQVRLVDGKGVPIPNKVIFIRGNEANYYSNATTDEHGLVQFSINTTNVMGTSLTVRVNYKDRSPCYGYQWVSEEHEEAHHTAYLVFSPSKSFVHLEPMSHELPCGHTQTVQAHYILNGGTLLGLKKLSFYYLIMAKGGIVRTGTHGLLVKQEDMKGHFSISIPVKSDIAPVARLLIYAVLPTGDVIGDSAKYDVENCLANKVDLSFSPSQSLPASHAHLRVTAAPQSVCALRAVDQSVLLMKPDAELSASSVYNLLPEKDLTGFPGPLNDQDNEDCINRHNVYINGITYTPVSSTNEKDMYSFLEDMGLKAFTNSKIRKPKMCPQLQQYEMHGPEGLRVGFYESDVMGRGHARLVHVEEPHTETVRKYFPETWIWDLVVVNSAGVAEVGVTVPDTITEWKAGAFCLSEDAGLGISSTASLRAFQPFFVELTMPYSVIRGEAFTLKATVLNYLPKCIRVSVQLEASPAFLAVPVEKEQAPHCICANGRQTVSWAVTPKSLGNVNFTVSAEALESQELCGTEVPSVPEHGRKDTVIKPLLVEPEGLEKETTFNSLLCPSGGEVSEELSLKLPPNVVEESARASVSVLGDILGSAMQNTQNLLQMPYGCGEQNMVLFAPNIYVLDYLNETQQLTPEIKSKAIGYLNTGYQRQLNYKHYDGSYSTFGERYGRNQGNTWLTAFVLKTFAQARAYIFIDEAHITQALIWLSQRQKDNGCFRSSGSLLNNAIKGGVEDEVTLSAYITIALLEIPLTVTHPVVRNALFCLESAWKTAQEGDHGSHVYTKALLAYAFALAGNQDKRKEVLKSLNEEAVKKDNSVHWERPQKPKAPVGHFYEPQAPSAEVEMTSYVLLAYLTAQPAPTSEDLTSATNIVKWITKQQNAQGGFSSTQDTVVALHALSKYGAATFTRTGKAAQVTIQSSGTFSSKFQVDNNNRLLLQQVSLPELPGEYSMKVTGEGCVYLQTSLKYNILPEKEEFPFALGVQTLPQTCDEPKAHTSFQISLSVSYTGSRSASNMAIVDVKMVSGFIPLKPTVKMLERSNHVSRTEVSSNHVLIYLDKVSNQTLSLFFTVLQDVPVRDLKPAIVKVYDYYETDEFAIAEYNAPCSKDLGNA
Test: competition binding assay, immobilized α-2 macroglobulin
Procedure: OP-1 was determined to interact specifically with α-2 macroglobulin in a standard competition binding assay, using immobilized, commercially available α-2 macroglobulin, and labeled and unlabeled OP-1 protein. […] This N-terminal portion of the protein, which is not part of the crystal structure, is positively charged and likely is highly flexible in solution.

B1: Truncated mature OP-1 (ligand, UniProt P18075 315-431, looked up)
chain: MANVAENSSSDQRQACKKHELYVSFRDLGWQDWIIAPEGYAAYYCEGECAFPLNSYMNATNHAIVQTLVHFINPETVPKPCCAPTQLNAISVLYFDDSSNVILKKYRNMVVRACGCH
notes: range 23-139; The range is on mature-protein numbering (His 139 = C-terminus); also called truncated mature OP-1 (first 22 amino acids cleaved by trypsin)
- fold less affinity (against untruncated OP-1): 10 fold
